{"source": "patent US20060294618A1", "about": "(CORNELL RESEARCH FOUNDATION, published 2006)", "binders": {"B1": {"name": "eIF4E-234 mutant translation initiation factor eIF4E (Capsicum chinense PI 159234, pvr1 allele), yeast two-hybrid prey fusion expressed from pJG4-5 (other)", "chain": "MATAEMEKTTTFDEAEKVKLNANEADDEVEEGEIVEETDDTTSYLSKEIAAKHPLEHSWTFWFDNTVAKSRQAAWGSSLRNVYTFSTVEDFWGAYNNIHHPSKLVVRADLHCFKHKIEPKWEDPVCANGGTWKMSFSKGKSDTSWLYTLLAMIGHQFDHEDEICGAVVSVRGKGEKISLWTKNAANETAQVSIGKQWKQFLDYSDSVGFIFHDDAKRLDRNAKNRYTV", "notes": "not shown: fusion partner encoded by prey plasmid pJG4-5"}, "B2": {"name": "eIF4E-234 (pvr1), 35S-labeled, translated in vitro from pET16b (other)", "chain": "B1 chain", "modifications": "35S-labeled (in vitro translation in reticulocyte lysate)", "notes": "also called resistant allele"}, "B3": {"name": "eIF4E-DEMP (pvr2^2 / pvr1^2), 35S-labeled, translated in vitro from pET16b (other)", "chain": "B1 chain with A51T, T66P, V67E, R71K, L79R, R107G, D109N", "modifications": "35S-labeled (in vitro translation in reticulocyte lysate)", "notes": "also called DEMP (pvr1^2); resistant allele"}, "B4": {"name": "eIF4E-YY (pvr2^1 / pvr1^1), 35S-labeled, translated in vitro from pET16b (other)", "chain": "B1 chain with A51T, T66P, V67E, R71K, L79R, R107G", "modifications": "35S-labeled (in vitro translation in reticulocyte lysate)", "notes": "also called YY (pvr1^1); resistant allele"}}, "key": {"[1]": {"target": "T1, TEV-HAT VPg, yeast two-hybrid bait fusion protein expressed from pEG202 (Tobacco etch virus, strain HAT, UniProt P0A7C2 1-202; P04517 1850-2037)", "T1 sequence (looked up)": "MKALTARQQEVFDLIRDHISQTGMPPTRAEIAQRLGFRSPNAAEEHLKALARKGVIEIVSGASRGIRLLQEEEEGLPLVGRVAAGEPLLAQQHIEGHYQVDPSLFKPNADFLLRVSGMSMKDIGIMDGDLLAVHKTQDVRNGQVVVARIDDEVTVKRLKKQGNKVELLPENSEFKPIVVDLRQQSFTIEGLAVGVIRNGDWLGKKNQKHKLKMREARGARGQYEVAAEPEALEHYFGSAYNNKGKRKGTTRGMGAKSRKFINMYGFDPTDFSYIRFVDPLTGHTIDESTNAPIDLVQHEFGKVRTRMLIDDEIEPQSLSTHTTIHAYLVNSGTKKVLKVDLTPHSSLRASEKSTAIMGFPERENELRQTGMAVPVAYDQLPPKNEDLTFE", "test": "yeast two-hybrid, beta-galactosidase assay", "description": "Bait plasmid pEG202 was used to express the fusion protein TEV-HAT VPg. The prey plasmid pJG4-5 was used to express pepper eIF4E. pEG202: Pto and PJG4-5:AvrPto were served as a positive control."}, "[2]": {"target": "T2, GST-VPgHAT (Tobacco etch virus, strain HAT, UniProt P04517 1850-2037)", "T2 construct": "Immobilized on glutathione-Sepharose 4B beads; also called TEV-HAT VPg (GST fusion); not shown: glutathione S-transferase (GST)", "T2 sequence (looked up)": "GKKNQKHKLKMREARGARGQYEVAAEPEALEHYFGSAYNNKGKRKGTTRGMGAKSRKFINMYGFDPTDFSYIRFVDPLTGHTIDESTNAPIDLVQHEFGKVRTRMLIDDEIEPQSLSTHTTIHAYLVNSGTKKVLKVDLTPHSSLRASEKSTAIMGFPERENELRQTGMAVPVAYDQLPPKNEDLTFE", "test": "GST pull-down, 35S-labeled in vitro-translated eIF4E"}}, "note": "Residue numbers refer to the chain shown, from its start.", "data": [{"binder": "B1", "values": [{"measurement": "binding result", "setting": "[1]", "value": "no binding"}]}, {"binder": "B2", "values": [{"measurement": "binding result", "setting": "[2]", "value": "no binding"}]}, {"binder": "B3", "values": [{"measurement": "binding result", "setting": "[2]", "value": "no binding"}]}, {"binder": "B4", "values": [{"measurement": "binding result", "setting": "[2]", "value": "no binding"}]}]}
